# B1: MP-24, SIRPαV2 IgV WT-IgG1 Fc hole silent + aCD3 VH-CH1-IgG1 Fc knob silent + aCD3 VL-CL (bispecific antibody)
# chain: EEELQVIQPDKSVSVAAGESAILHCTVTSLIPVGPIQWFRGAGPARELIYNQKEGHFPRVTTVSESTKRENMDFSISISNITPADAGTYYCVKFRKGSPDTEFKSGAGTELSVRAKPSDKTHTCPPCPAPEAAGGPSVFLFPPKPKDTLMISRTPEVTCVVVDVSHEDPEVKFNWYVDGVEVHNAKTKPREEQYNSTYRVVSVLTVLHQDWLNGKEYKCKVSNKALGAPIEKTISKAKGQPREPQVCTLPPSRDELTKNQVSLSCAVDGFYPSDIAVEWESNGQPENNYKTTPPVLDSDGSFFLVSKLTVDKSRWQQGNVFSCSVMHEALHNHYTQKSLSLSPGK
# heavy: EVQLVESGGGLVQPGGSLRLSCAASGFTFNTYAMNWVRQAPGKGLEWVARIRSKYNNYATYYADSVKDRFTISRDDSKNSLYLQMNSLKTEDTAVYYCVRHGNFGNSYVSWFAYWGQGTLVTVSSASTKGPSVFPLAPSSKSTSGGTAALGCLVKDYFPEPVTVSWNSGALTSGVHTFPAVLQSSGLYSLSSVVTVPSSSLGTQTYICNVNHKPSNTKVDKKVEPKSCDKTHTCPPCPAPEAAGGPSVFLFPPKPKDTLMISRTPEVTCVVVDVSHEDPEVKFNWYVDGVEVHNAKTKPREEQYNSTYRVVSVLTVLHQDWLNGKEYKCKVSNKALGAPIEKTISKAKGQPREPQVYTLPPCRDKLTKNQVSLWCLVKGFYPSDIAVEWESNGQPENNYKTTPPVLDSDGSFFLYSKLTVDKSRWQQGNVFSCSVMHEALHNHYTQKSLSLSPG
# light: QAVVTQEPSLTVSPGGTVTLTCRSSTGAVTTSNYANWVQQKPGQAPRGLIGGTNKRAPWTPARFSGSLLGGKAALTITGAQAEDEADYYCALWYSNLWVFGGGTKLTVLGQPKAAPSVTLFPPSSEELQANKATLVCLISDFYPGAVTVAWKADSSPVKAGVETTTPSKQSNNKYAASSYLSLTPEQWKSHRSYSCQVTHEGSTVEKTVAPTECS
# notes: Format FV-67; one wild type SIRPαV2 IgV monomer; also called monovalent wild type SIRPαV2 IgV-IgG1 Fc protein
# Tests used:
# [1] = target: T1, human CD47 (cluster of differentiation 47), on cells (human, UniProt Q08722 19-323); assay: FACS on primary human platelets, pH 7.3
# T1 construct: whole, on cells; also called IAP; integrin-associated protein
# Description: Human primary platelets were seeded into 96-well plate at 1×10⁶/well and incubated with Fc blocking antibody at room temperature. […] After washing the platelets with 1×PBS+2% FBS at pH 7.3, FITC-labelled anti-human IgG Fc secondary antibody (Abcam, CAT #ab6854) were added and incubated at 4° C. for 30 minutes at pH 7.3. After washing, the platelets were then analyzed by FACS in 1×PBS+2% FBS at pH 7.3.
# [2] = target: T2, His-tagged CD47 extracellular domain (ECD) protein (Abclonal, CAT #RP01306) (human, UniProt Q08722 19-139); assay: ELISA, immobilized His-tagged CD47 ECD, fusion protein as analyte
# T2 construct: extracellular domain; Bought; also called recombinant human CD47 protein with His-tag; His-tag human CD47 ECD protein
binder,measurement,setting,value
B1,binding result,[1],binds
same,binding result,[2],binds

# Reference: patent publication US20260274921A1 (ADAPTOCUE, published 2026)
